From patent US20200199533A1 (KING ABDULLAH UNIVERSITY OF SCIENCE AND TECHNOLOGY, published 2020)

How the values were obtained:
[1] = target: CD44 (HCELL), native glycoprotein from human HSPCs (KG1a, CD34^pos fraction) (human) (UniProt P16070); assay: SPR; CD44 captured from KG1a lysate on Hermes-3-mAb, E-Ig injected, 150 mM NaCl; apparent rate constant; 1st experiment
[2] = target: T1, CD43, native glycoprotein from KG1a cells (human, UniProt P16150 20-400, native glycosylation); assay: SPR; CD43 captured from KG1a lysate on polyclonal CD43 Ab, E-Ig injected (3.9-2000 nM), 150 mM NaCl; steady-state model; 1st experiment
T1 construct: mature
T1 sequence (looked up): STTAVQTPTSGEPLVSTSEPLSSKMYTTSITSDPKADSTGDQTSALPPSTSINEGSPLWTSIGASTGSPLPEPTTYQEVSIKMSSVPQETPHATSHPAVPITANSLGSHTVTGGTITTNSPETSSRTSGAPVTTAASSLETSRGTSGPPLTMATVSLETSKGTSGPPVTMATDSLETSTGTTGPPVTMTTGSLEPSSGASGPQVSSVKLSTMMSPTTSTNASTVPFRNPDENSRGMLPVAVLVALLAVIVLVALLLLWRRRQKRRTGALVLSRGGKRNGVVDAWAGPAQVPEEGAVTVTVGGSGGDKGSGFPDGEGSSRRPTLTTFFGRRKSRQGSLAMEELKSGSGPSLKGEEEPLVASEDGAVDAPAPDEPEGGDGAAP

[3] = target: CD44 (HCELL), native glycoprotein from human HSPCs (KG1a, CD34^pos fraction) (human) (UniProt P16070); assay: SPR, decay after injection of E-Ig (177 nM, 1 mM CaCl2) over CD44 captured on Hermes-3; apparent constant that includes loss of CD44 from the mAb, s^-1 as in paragraph 58
[4] = target: T2, PSGL-1, native glycoprotein from human HSPCs (KG1a, CD34^pos-BM) (human, UniProt Q14242 42-412, native glycosylation and tyrosine sulfation); assay: SPR; PSGL-1 captured from KG1a lysate on KPL-1-mAb, E-Ig injected, 150 mM NaCl; apparent rate constant; 2nd experiment
T2 construct: mature; also called P-selectin glycoprotein ligand-1
T2 sequence (looked up): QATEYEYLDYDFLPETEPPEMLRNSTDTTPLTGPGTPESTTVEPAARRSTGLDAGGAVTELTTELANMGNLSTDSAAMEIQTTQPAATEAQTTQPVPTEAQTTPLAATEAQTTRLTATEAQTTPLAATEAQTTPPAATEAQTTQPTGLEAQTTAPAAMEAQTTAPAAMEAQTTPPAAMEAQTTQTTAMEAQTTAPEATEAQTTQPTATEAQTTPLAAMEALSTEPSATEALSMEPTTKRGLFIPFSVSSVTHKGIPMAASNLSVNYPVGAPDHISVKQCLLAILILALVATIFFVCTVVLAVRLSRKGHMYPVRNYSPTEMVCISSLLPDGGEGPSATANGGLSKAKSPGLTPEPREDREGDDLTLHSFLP

[5] = target: CD44 (HCELL), native glycoprotein from human HSPCs (KG1a, CD34^pos fraction) (human) (UniProt P16070); assay: SPR, from the binding isotherm; CD44 captured from KG1a lysate
[6] = target: CD44 (HCELL), native glycoprotein from human HSPCs (KG1a, CD34^pos fraction) (human) (UniProt P16070); assay: SPR; CD44 captured from KG1a lysate on Hermes-3-mAb, E-Ig injected (3.9-2000 nM), 150 mM NaCl; steady-state model; mean ± SEM
[7] = target: T2, PSGL-1, native glycoprotein from human …; assay: SPR; PSGL-1 captured from KG1a lysate on KPL-1-mAb, E-Ig injected, 150 mM NaCl; apparent rate constant; 1st experiment
[8] = target: T3, CD34, native glycoprotein from human HSPCs (KG1a, CD34^pos-BM, CD34^pos-UCB, CD34^pos-AML) (human, UniProt P28906 32-385, native glycosylation (about 120-130 kDa form); sialylated O-glycans and tyrosine sulfation are shown to matter for selectin binding); assay: SPR; CD34 captured from KG1a lysate on 563-mAb, E-Ig injected (3.9-2000 nM), 150 mM NaCl; steady-state model; 2nd experiment
T3 construct: mature; also called E-selL CD34
T3 sequence (looked up): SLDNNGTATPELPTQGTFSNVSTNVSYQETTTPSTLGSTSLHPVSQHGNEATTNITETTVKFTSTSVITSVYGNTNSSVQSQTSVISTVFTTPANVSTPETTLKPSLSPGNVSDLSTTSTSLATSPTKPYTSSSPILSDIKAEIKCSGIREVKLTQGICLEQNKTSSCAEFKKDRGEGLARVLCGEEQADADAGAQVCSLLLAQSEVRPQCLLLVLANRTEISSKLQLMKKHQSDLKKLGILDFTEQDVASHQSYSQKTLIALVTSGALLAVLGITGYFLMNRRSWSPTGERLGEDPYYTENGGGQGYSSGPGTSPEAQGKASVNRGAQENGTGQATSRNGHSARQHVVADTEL

[9] = target: T3, CD34, native glycoprotein from human …; assay: SPR, apparent rate constant: includes loss of CD34 or CD34⋅E-Ig from 4H11-mAb and of E-Ig from CD34⋅4H11-mAb; KG1a lysate
[10] = target: T2, PSGL-1, native glycoprotein from human …; assay: SPR; PSGL-1 captured from KG1a lysate on KPL-1-mAb, E-Ig injected (3.9-2000 nM), 150 mM NaCl; steady-state model; 3rd experiment
[11] = target: CD44 (HCELL), native glycoprotein from human HSPCs (KG1a, CD34^pos fraction) (human) (UniProt P16070); assay: SPR; CD44 captured from KG1a lysate on Hermes-3-mAb, E-Ig injected (3.9-2000 nM), 150 mM NaCl; steady-state model; 3rd experiment

CD44 (HCELL), native glycoprotein from human HSPCs (KG1a, CD34^pos fraction) (human), sequence (P16070 21-742): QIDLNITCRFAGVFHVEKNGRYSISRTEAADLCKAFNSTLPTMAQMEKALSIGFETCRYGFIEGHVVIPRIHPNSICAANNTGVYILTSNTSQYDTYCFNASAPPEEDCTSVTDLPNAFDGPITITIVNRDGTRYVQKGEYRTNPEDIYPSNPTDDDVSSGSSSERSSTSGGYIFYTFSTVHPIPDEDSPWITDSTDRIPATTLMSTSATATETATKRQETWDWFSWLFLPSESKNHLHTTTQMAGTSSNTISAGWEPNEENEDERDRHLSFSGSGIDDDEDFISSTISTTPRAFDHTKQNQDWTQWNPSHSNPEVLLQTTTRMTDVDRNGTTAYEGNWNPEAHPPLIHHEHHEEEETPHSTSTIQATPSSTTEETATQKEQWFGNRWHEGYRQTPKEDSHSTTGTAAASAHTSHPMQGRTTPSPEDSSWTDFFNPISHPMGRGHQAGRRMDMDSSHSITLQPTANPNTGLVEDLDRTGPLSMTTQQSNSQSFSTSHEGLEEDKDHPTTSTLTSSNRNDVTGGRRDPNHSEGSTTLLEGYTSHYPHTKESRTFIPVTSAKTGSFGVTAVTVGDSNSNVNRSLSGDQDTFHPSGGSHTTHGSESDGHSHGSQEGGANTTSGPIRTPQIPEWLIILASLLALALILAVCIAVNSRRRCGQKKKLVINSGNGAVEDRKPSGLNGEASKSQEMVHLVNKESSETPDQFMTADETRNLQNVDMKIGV

B1: recombinant E-selectin human immunoglobulin chimeric protein (Fc fusion)
chain: WSYNTSTEAMTYDEASAYCQQRYTHLVAIQNKEEIEYLNSILSYSPSYYWIGIRKVNNVWVWVGTQKPLTEEAKNWAPGEPNNRQKDEDCVEIYIKREKDVGMWNDERCSKKKLALCYTAACTNTSCSGHGECVETINNYTCKCDPGFSGLKCEQIVNCTALESPEHGSLVCSHPLGNFSYNSSCSISCDRGYLPSSMETMQCMSSGEWSAPIPACNVVECDAVTNPANGFVECFQNPGSFPWNTTCTFDCEEGFELMGAQSLQCTSSGNWDNEKPTCKAVTCRAVRQPQNGSVRCSHSPAGEFTFKSSCNFTCEEGFMLQGPAQVECTTQGQWTQQIPVCEAFQCTALSNPERGYMNCLPSASGSFRYGSSCEFSCEQGFVLKGSKRLQCGPTGEWDNEKPTCEAVRCDAVHQPPKGLVRCAHSPIGEFTYKSSCAFSCEEGFELHGSTQLECTSQGQWTEEVPSCQVVKCSSLAVPGKINMSCSGEPVFGTVCKFACPEGWTLNGSAARTCGATGHWSGLLPTCEAPTESNIP
- koff [1]: 0.00011 s⁻¹
- kon [1]: 641 M⁻¹ s⁻¹
- Kd [2]: 509 nM
- koff-apparent [3]: 0.00019 s⁻¹
- koff [4]: 0.000165 s⁻¹
- kon [4]: 797 M⁻¹ s⁻¹
- % E-Ig binding assuming 1:1 stoichiometry [5]: 23%
- Kd [6]: 233 nM
- koff [7]: 0.00015 s⁻¹
- kon [7]: 438 M⁻¹ s⁻¹
- Kd [8]: 268 nM
- koff [9]: 0.00033 s⁻¹
- Kd [10]: 229 nM
- Kd [11]: 214 nM
